Results from article PMC9352680, “A comprehensive thermodynamic model for RNA binding by the Saccharomyces cerevisiae Pumilio protein PUF4”.
Residue numbers refer to the chain shown, from its start. Names may count otherwise.

B1: Id_ii_S2_P4E.3_K4.2_C4.2_[T-1A]_H4.2_A4.1_F4.1_T4.2_[G10C]_[T11G] (ssRNA)
RNA: UUUGAUUAAUAUGAUAUCGUUCUUUCUCAUAUAUAUUACGUUCUUUCUCGAUAUCAUAUUAAUCUUU
B2: Id_ii_S2_P4E.3_K4.2_C4.2_H4.2_A4.1_F4.1_T4.2_[G10A]_[T11C] (ssRNA)
RNA: B1 RNA with A29U, C39A, G40C
B3: Id_ii_S2_P4E.3_K4.2_C4.2_[T-1A]_H4.2_A4.1_F4.1_T4.2_[G10C]_[T11C] (ssRNA)
RNA: B1 RNA with G40C
B4: Id_ii_S2_P4E.3_K4.2_C4.2_H4.2_A4.1_F4.1_T4.2_[G10T] (ssRNA)
RNA: B1 RNA with A29U, C39U, G40U
B5: Id_ii_S2_P4E.3_K4.2_C4.2_[C-2A]_[T-1A]_H4.2_A4.1_F4.1_T4.2_[G10A]_[T11A] (ssRNA)
RNA: B1 RNA with C28A, C39A, G40A
B6: Id_ii_S2_P4E.3_K4.2_C4.2_[T-1G]_H4.2_A4.1_F4.1_T4.2_[G10T] (ssRNA)
RNA: B1 RNA with A29G, C39U, G40U
B7: Id_ii_S2_P4E.3_K4.2_C4.2_[C-2A]_H4.2_A4.1_F4.1_T4.2_[G10C] (ssRNA)
RNA: B1 RNA with C28A, A29U, G40U
B8: Id_ii_S2_P4E.3_K4.2_C4.2_[C-2A]_H4.2_A4.1_F4.1_T4.2_[G10T]_[T11C] (ssRNA)
RNA: B1 RNA with C28A, A29U, C39U, G40C
B9: Id_ii_S2_P4E.3_K4.2_C4.2_[C-2A]_[T-1C]_H4.2_A4.1_F4.1_T4.2_[G10C]_[T11A] (ssRNA)
RNA: B1 RNA with C28A, A29C, G40A
B10: Id_ii_S2_P4E.3_K4.2_C4.2_H4.2_A4.1_F4.1_T4.2_[G10C]_[T11G] (ssRNA)
RNA: B1 RNA with A29U
B11: Id_ii_S2_P4E.3_K4.2_C4.2_[C-2A]_[T-1C]_H4.2_A4.1_F4.1_T4.2_[G10C] (ssRNA)
RNA: B1 RNA with C28A, A29C, G40U
B12: Id_ii_S2_P4E.3_K4.2_C4.2_[T-1A]_H4.2_A4.1_F4.1_T4.2 (ssRNA)
RNA: B1 RNA with C39G, G40U
B13: Id_ii_S2_P4E.3_K4.2_C4.2_[C-2A]_[T-1C]_H4.2_A4.1_F4.1_T4.2_[G10A]_[T11A] (ssRNA)
RNA: B1 RNA with C28A, A29C, C39A, G40A
B14: Id_ii_S2_P4E.3_K4.2_C4.2_[T-1C]_H4.2_A4.1_F4.1_T4.2_[G10A] (ssRNA)
RNA: B1 RNA with A29C, C39A, G40U
B15: Id_ii_S2_P4E.3_K4.2_C4.2_[T-1A]_H4.2_A4.1_F4.1_T4.2_[G10A] (ssRNA)
RNA: B1 RNA with C39A, G40U
B16: Id_ii_S2_P4E.3_K4.2_C4.2_[C-2A]_H4.2_A4.1_F4.1_T4.2_[G10C]_[T11G] (ssRNA)
RNA: B1 RNA with C28A, A29U
B17: Id_ii_S2_P4E.3_K4.2_C4.2_[T-1C]_H4.2_A4.1_F4.1_T4.2_[G10T]_[T11G] (ssRNA)
RNA: B1 RNA with A29C, C39U
B18: Id_ii_S2_P4E.3_K4.2_C4.2_[T-1A]_H4.2_A4.1_F4.1_T4.2_[T11G] (ssRNA)
RNA: B1 RNA with C39G
B19: Id_ii_S2_P4E.3_K4.2_C4.2_[T-1G]_H4.2_A4.1_F4.1_T4.2_[G10A]_[T11G] (ssRNA)
RNA: B1 RNA with A29G, C39A
B20: Id_ii_S2_P4E.3_K4.2_C4.2_[C-2A]_[T-1C]_H4.2_A4.1_F4.1_T4.2_[G10C]_[T11G] (ssRNA)
RNA: B1 RNA with C28A, A29C
B21: Id_ii_S2_P4E.3_K4.2_C4.2_[C-2A]_H4.2_A4.1_F4.1_T4.2_[G10C]_[T11C] (ssRNA)
RNA: B1 RNA with C28A, A29U, G40C
B22: Id_ii_S2_P4E.3_K4.2_C4.2_[T-1A]_H4.2_A4.1_F4.1_T4.2_[G10A]_[T11G] (ssRNA)
RNA: B1 RNA with C39A
B23: Id_ii_S2_P4E.3_K4.2_C4.2_[T-1G]_H4.2_A4.1_F4.1_T4.2_[G10A]_[T11C] (ssRNA)
RNA: B1 RNA with A29G, C39A, G40C
B24: Id_ii_S2_P4E.3_K4.2_C4.2_[T-1C]_H4.2_A4.1_F4.1_T4.2_[G10A]_[T11A] (ssRNA)
RNA: B1 RNA with A29C, C39A, G40A
B25: Id_ii_S2_P4E.3_K4.2_C4.2_[C-2A]_[T-1A]_H4.2_A4.1_F4.1_T4.2_[G10C] (ssRNA)
RNA: B1 RNA with C28A, G40U
B26: Id_ii_S2_P4E.3_K4.2_C4.2_[T-1C]_H4.2_A4.1_F4.1_T4.2_[G10C]_[T11G] (ssRNA)
RNA: B1 RNA with A29C
B27: Id_ii_S2_P4E.3_K4.2_C4.2_[C-2A]_[T-1C]_H4.2_A4.1_F4.1_T4.2_[G10A]_[T11C] (ssRNA)
RNA: B1 RNA with C28A, A29C, C39A, G40C

Biological target: T1, PUF4 RNA-binding domain (Saccharomyces cerevisiae, UniProt P25339 537-888)
T1 sequence: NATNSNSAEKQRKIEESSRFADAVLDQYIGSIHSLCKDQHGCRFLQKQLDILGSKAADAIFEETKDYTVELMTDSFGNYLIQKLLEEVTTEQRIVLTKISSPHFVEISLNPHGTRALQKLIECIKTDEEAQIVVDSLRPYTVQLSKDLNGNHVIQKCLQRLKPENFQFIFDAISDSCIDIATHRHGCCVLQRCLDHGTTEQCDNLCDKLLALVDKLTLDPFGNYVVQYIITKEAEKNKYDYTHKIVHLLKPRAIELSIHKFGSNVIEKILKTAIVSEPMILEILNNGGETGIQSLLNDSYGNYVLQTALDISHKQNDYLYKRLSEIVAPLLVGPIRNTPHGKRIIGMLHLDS
Assay: Mg; RNA-MaP; 20 mM Na-HEPES pH 7.4, 30 mM KOAc, 0.75 mM MgCl2, 0.1% Tween-20, 5% glycerol, 0.1 mg/mL BSA, 2 mM DTT; 25 C; 0.0125-409.6 nM protein
Settings: tags: N-His6-TEV cleaved; C-SNAP kept, Cy3B-labelled; label: tethered on chip by stalled RNA polymerase

Binder	Kd
B1	32.8 nM
B2	14 nM
B3	10.3 nM
B4	3.81 nM
B5	233 nM
B6	7.25 nM
B7	14.2 nM
B8	12.2 nM
B9	16.8 nM
B10	18.8 nM
B11	9.33 nM
B12	8.89 nM
B13	21.1 nM
B14	7.32 nM
B15	10.1 nM
B16	25.3 nM
B17	5.86 nM
B18	46.4 nM
B19	266 nM
B20	159 nM
B21	12.8 nM
B22	360 nM
B23	22.8 nM
B24	12.2 nM
B25	35.9 nM
B26	9.56 nM
B27	13.3 nM
UCUCUUUGUCUUAUUGUCUCUU (ssRNA) [Ib_S1_P5E.1_K5.1_C5.1_H5.1_[A4C]_A5.1_F5.1_[A10G]_T5.1]	840 nM
UCUCUUUGUGUUAUUGUCUCUU (ssRNA) [Ib_S1_P5E.1_K5.1_C5.1_H5.1_[A4G]_A5.1_F5.1_[A10G]_T5.1]	382 nM
